Source: US20110045003A1 (SYNOVEX, published 2011)
Like-named read-outs stand apart in the source and are kept apart here.

T1: BSA coupled 37-mer Cad-11 peptide encompassing the Cad-11 immunogen (UniProt P55287 54-90, limits assumed, linked to BSA)
T1 construct: domain: 37-mer peptide encompassing the Cad-11 immunogen; also called Cad-11 antigen; Cad-11 peptide immunogen
T1 peptide (looked up): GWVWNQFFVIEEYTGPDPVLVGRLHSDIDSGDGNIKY

T2: Cad-9 EC1 domain peptide (region overlapping G1-G33 of Cad-11 EC1) (UniProt Q9ULB4 54-86, conjugated to biotin)
T2 construct: domain: first 33 amino acids of the EC1 domain
T2 peptide (looked up): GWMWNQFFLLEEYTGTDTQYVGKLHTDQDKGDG

T3: Cad-18 EC1 domain peptide (region overlapping G1-G33 of Cad-11 EC1) (UniProt Q13634 54-86, conjugated to biotin)
T3 construct: domain: first 33 amino acids of the EC1 domain
T3 peptide (looked up): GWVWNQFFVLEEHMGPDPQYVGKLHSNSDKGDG

T4: Cad-24 EC1 domain peptide (region overlapping G1-G33 of Cad-11 EC1) (UniProt Q86UP0 45-77, conjugated to biotin)
T4 construct: domain: first 33 amino acids of the EC1 domain
T4 peptide (looked up): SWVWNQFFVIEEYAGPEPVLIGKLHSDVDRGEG

T5: Cad-7 EC1 domain peptide (region overlapping G1-G33 of Cad-11 EC1) (UniProt Q9ULB5 48-80, conjugated to biotin)
T5 construct: domain: first 33 amino acids of the EC1 domain
T5 peptide (looked up): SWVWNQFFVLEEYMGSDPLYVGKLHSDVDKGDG

T6: Cad-20 EC1 domain peptide (region overlapping G1-G33 of Cad-11 EC1) (UniProt Q9HBT6 60-92, conjugated to biotin)
T6 construct: domain: first 33 amino acids of the EC1 domain
T6 peptide (looked up): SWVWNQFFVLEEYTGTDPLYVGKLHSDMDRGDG

B1: humanized anti-Cad-11 EC1 antibody SDP051 (Vκ1/VH5) (antibody, IgG4, V domains shown)
VH: EVQLVQSGAEVKKPGASVKVSCKASGYSFTGYFMNWVRQAPGQGLEWIGRINPYTGDTFYNQKFKGRVTITVDKSTSTAYMELSSLRSEDTAVYYCGRLGSRYWYFDVWGQGTTVTVSS
VL: DVLMTQTPLSSPVTLGQPASISCRSSQSIIHSNGNTYLEWYLQKPGQSPQLLIYKVSNRFSGVPDRFTGSGSGTDFTLKISRVEAEDVGVYYCFQGSHVPWTFGQGTKLEIK
notes: humanized IgG4 (S241P), kappa
B2: murine H1M1 monoclonal anti-Cad-11 EC1 antibody (hybridoma H1M1, ATCC PTA-9699) (antibody, V domains shown)
VH: EVQLQQSGPELVKPGASVKISCKASGYSFTGYFMNWVKQSHGKSLEWIGRINPYTGDTFYNQKFKGKATLTVDKSSSTAHMELLSLSSEDSAVYYCGRLGSRYWYFDVWGAGTTVTVSS
VL: DVLMTQTPLSLPVSLGDQASISCRSSQSIIHSNGNTYLEWYLQKPGQSPKLLIYKVSNRFSGVPDRFTGSGSGTDFTLKISRVEAEDLGVYYCFQGSHVPWTFGGGTKLEIK
modifications: Biotinylated when used as the labelled competitor in Example 14; the letters are unchanged.
notes: murine antibody raised against Peptide 4; also called SYN0012; SYN0012/H1M1

Legend:
[1] = target: T1, BSA coupled 37-mer Cad-11 peptide …; assay: ELISA, BSA-coupled 37-mer cadherin peptide coated at 500 ng/ml, antibody titrated, A450
Procedure: (§1) Reactibind plates (ThermoScientific) were coated with 500 ng/ml of the BSA coupled cadherin 37-mer peptide (NE peptide) corresponding to Cadherins-7, -8, -9, -11, -18, -20, and -24 in 0.05% Tween (EMD, product code 9480) in PBS (pH 7.2) (Gibco(Invitrogen), #20012) at 100 μl volume/well for overnight at 4° C. The peptide containing solution was removed from the well and the plate blocked with a 2% bovine serum albumin (BSA) in PBS, 200 μl volume/well, for 2 h at 22° C. The plate was then washed twice with 200 μl/well of PBS-Tween 0.05% at 22° C. and blotted dry. A dilution series from 5 μg/ml to 8 ng/ml in a volume of 100 μl/well of each the humanized anti-Cad-11 antibodies were incubated in the peptide coated wells and incubated at 22° C. for 1 hr. Antibody solution was removed from the wells and the plate washed twice with 200 μl/well of 0.05% Tween-PBS at 22° C. and blotted dry. The goat-anti mouse IgG (Pierce # 31432) was added to each well to plate at a 1:1000 dilution, 100 μl/well and incubate at 22° C. for 30 min. The secondary antibody solution was removed and the plate washed twice with 200 μl/well of 0.05% Tween-PBS at 22° C. and blotted dry. The reaction was developed by adding 100 μl/well tetramethylbenzidine (TMB) reagent IgG (Pierce # 34022, 1 step Turbo TMB-ELISA) to plate and developed at 22° C. for 5 min.

[2] = target: T1, BSA coupled 37-mer Cad-11 peptide …; assay: ELISA on BSA coupled 37-mer peptides, coat 50 ng/ml
[3] = target: T1, BSA coupled 37-mer Cad-11 peptide …; assay: ELISA on BSA coupled 37-mer peptide, coat 50 ng/ml; Cad-11 antigen, coat 50 ng/ml
[4] = target: T1, BSA coupled 37-mer Cad-11 peptide …; assay: ELISA, BSA-coupled 37-mer cadherin peptide coated at 500 ng/ml, antibody titrated, A450
Procedure: as §1

[5] = target: T2, Cad-9 EC1 domain peptide (region …); assay: ELISA on biotinylated EC1 domain peptide captured on a Neutravidin plate, goat anti-mouse IgG, TMB, A450
Procedure: (§2) The specificity of H1M1 and H14 anti-Cad-11 antibodies was tested further using an ELISA against the first 33 amino acids of the EC1 domains of Cad-11, Cad-7, Cad-8, Cad-20, Cad-24, Cad-9, Cad-18, and MN-Cad. Peptides corresponding to the region of Cad-7, Cad-8, Cad-20, Cad-24, Cad-9, Cad-18, MN-Cad that overlapped with the G1-G33 region of the Cad-11 EC1 domain were synthesized and conjugated to biotin. 100 μl of a 30 ng/ml solution of each of these peptides in PBS-Tween (0.05%) were incubated in each well of a 96-well Netravidin plate for 2-3 hrs at 4° C. and then washed twice with PBS-Tween (0.05%). Various concentrations of the anti-Cad-11 antibody were incubated in each well for 1 hr at 22° C. and then washed twice with PBS-Tween (0.05%). 100 μl of a 1/1000 dilution of a goat anti-mouse IgG secondary antibody were added to each well, incubated for 30 min at 22° C., and then washed twice with PBS-Tween (0.05%). 100 μl/well of room temperature TMB (3,3′,5,5′-tetramethylbenzidine) reagent was added to each well and color was allowed to develop for 5 min at 22° C.

[6] = target: T3, Cad-18 EC1 domain peptide (region …); assay: as above
Procedure: as §2

[7] = target: T4, Cad-24 EC1 domain peptide (region …); assay: as above
Procedure: as §2

[8] = target: T5, Cad-7 EC1 domain peptide (region …); assay: as above
Procedure: as §2

[9] = target: T6, Cad-20 EC1 domain peptide (region …); assay: as above
Procedure: as §2

| Binder | EC50 (read off the curve) [1] | binding differential (Cad-11 against Cad-8) [2] | EC50 [3] | EC50 (read off the curve) [4] | binding result [5] | binding result [6] | binding result [7] | binding result [8] | binding result [9] |
| --- | --- | --- | --- | --- | --- | --- | --- | --- | --- |
| B1 | ~0.04 µg/mL | > 200 fold | 0.0068 µg/mL | ~0.04 µg/mL |  |  |  |  |  |
| B2 |  |  |  |  | no binding | no binding | no binding | no binding | no binding |
